# In PMC3443293:
# Key:
# Experiment in all cases: AUC
# [1] = biological target: mouse nectin-3 ectodomain (D1-D3 with part of the stalk) (mouse) (UniProt Q9JLB9)
# [2] = biological target: human nectin-1 ectodomain (D1-D3) (human) (UniProt Q15223)
# [3] = biological target: human nectin-3 ectodomain (D1-D3) (human) (UniProt Q9NQS3)
# Sequence of human nectin-3 ectodomain (D1-D3) (Q9NQS3 58-359): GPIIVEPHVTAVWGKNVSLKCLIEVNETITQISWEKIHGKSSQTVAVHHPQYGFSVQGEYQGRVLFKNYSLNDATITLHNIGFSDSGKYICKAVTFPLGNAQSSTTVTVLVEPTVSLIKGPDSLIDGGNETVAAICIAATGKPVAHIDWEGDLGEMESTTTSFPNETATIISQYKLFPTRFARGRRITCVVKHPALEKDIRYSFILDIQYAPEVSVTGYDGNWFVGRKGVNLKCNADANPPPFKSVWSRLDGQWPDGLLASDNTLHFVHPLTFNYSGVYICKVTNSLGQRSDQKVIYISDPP
# Sequence of mouse nectin-3 ectodomain (D1-D3 with part of the stalk) (Q9JLB9 58-401): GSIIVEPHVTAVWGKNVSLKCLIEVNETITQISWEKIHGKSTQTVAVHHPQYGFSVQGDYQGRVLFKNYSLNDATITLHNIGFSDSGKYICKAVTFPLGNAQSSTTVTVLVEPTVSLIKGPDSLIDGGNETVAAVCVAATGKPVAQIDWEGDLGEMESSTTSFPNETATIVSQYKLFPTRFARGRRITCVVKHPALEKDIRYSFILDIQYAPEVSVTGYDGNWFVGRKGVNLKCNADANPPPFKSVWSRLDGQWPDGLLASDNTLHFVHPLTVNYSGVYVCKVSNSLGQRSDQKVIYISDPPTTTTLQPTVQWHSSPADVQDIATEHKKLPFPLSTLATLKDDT
# Sequence of human nectin-1 ectodomain (D1-D3) (human) (Q15223 31-337): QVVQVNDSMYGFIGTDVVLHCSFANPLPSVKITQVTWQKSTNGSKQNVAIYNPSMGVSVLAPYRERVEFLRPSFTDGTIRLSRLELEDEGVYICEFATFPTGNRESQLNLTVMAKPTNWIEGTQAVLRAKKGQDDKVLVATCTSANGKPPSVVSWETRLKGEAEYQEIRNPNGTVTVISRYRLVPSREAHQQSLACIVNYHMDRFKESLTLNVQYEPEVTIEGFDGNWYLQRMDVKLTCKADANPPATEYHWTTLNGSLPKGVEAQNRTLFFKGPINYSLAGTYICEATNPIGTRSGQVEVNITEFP
Substance,Kd [1] [µM],stoichiometry N [1],stoichiometry N [2],Kd [3] [µM],stoichiometry N [3]
mouse nectin-3 ectodomain (D1-D3 with part of the stalk) (from UniProt Q9JLB9 58-401) (domain or fragment),122,2,,,
human nectin-3 ectodomain (D1-D3) (from UniProt Q9NQS3 58-359) (domain or fragment),,,1,228,2
